The target of one experiment is T1, human CGRP alpha (human, UniProt P06881 83-119, N-terminally or C-terminally biotinylated (the two ELISAs were run separately)).
T1 construct: Bought peptide; N- and C-terminally biotinylated forms were captured on neutravidin plates; also called HuCGRP alpha; CGRPα
T1 peptide (looked up): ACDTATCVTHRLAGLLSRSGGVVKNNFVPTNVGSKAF
Briefly: ELISA: biotinylated human CGRP alpha on neutravidin plates (the sheet does not say whether N- or C-terminally biotinylated), antibody dilution series, OD450. On the technique in general: An ELISA detects its analyte on a solid surface through an enzyme-linked reagent.

In a further experiment the target is T2, human beta-NGF (human, UniProt P01138 122-241, limits assumed, biotinylated in the ELISA (site not stated)).
T2 construct: Biotinylated and captured on Neutravidin plates in the ELISA; Used unlabelled in the TF1 proliferation assay; also called hu B-NGF; huB-NGF
Briefly: ELISA: biotinylated hu B-NGF on Neutravidin plates, antibody dilution series, anti-human IgG Fc-HRP, OD450.

Experiment [1] has as its target T3, human PCSK9 (human, UniProt Q8NBP7 31-692, biotinylated in the ELISA (site not stated)).
T3 construct: Biotinylated and captured on Neutravidin plates in the ELISA; Used unlabelled at 3 ug/mL in the HepG2 LDL uptake assay; also called huPCSK9; biotinylated-PCSK9
Nature of the experiment: ELISA: biotinylated human PCSK9 on Neutravidin plates, antibody dilution series, anti-human IgG Fc-HRP, OD450.

The target in experiment [2] is T3, human PCSK9. Briefly: cell-based or functional assay.

T3 sequence (Q8NBP7 31-692 limits assumed): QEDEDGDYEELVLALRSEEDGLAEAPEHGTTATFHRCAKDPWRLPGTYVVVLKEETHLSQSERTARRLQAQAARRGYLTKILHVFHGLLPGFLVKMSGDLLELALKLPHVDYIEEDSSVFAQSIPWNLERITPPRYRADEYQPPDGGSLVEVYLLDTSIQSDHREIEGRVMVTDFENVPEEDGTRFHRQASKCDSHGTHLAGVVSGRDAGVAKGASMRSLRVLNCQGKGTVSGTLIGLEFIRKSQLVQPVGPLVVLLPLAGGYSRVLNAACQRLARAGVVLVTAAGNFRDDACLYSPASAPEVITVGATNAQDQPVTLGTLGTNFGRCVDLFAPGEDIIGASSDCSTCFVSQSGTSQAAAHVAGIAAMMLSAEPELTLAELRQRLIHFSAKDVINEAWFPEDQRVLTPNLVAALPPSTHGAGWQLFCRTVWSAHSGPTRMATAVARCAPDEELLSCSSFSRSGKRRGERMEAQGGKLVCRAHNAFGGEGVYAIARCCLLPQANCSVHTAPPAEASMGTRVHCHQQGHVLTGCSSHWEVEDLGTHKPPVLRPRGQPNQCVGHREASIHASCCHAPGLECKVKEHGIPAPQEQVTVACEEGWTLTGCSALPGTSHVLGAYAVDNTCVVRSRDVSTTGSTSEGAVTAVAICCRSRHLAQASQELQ
T2 sequence (P01138 122-241 limits assumed): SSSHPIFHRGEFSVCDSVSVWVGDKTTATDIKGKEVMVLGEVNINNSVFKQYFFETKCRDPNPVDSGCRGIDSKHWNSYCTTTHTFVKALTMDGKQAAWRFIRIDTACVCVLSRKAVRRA

B1: Ab3 (antibody, V domains shown)
VH: EVQLVESGGGLVQPGGSLRLSCAVSGLDLSSYYMQWVRQAPGKGLEWVGVIGINDNTYYASWAKGRFTISRDNSKTTVYLQMNSLRAEDTAVYFCARGDIWGQGTLVTVSS
VL: QVLTQSPSSLSASVGDRVTINCQASQSVYDNNYLAWYQQKPGKVPKQLIYSTSTLASGVPSRFSGSGSGTDFTLTISSLQPEDVATYYCLGSYDCSSGDCFVFGGGTKVEIKR
Take B1: in the experiment with human CGRP alpha, a half-maximal response (EC50) required 0.127 nM. This lies in the sub-nanomolar range.

B2: Ab8 (antibody, V domains shown)
VH: QVQLVESGGGVVQPGRSLRLSCAASGFTFSSYAMIWVRQAPGKGLEYIGYIDTDTSAYYASSVKGRFTISRDNSKNTLYLQMSSLRAEDTAVYYCARSYAAYGGYPATFDPWGQGTLVTVSS
VL: DIQMTQSPSSLSASVGDRVTITCQASEDIYNLLAWYQQKPGKVPKLLIYSASTLASGVPSRFSGSGSGTDYTLTISSLQPEDVATYYCQNNYLVTTYGVAFGGGTKVEIK
B2: in the experiment with human beta-NGF, the EC50 (in general, the concentration needed to bring the measured effect to its halfway point) is 0.254 nM.

B3: Ab4 (antibody, V domains shown)
VH: QSLEESGGRLVTPGTPLTLTCSVSGIDLSGYYMNWVRQAPGKGLEWIGVIGINGATYYASWAKGRFTISKTSSTTVDLKMTSLTTEDTATYFCARGDIWGPGTLVTVSS
VL: QVLTQTPSPVSAAVGSTVTINCQASQSVYHNTYLAWYQQKPGQPPKQLIYDASTLASGVPSRFSGSGSGTQFTLTISGVQCNDAAAYYCLGSYDCTNGDCFVFGGGTEVVVKR
Regarding B3, in the experiment with human CGRP alpha, it took 0.159 nM to reach a half-maximal effect (EC50).

B4: Ab2 (antibody, V domains shown)
VH: SVEESGGRLVTPGTPLTLTCTVSGFSLSSYAMSWVRQAPGKGLEWIGIIDAIDNTYYASWAKGRFTISKTSTTVDLKMTSLTTGDTATYFCARASILGYSIATGFNIWGPGTLVTVSS
VL: AYDMTQTPASVEVAVGGTVTIKCQASQSISSHLAWYQQKSGQPPKLLIYRASTLESGVSSRFKGSGSGTEFTLTISDLECADAATYYCQQGYGVSDVDNGFGGGTEVVVK
In the case of B4, in the experiment with human PCSK9 [1], the response was half-maximal at 0.174 nM (EC50). In addition, the “IC50; LDL uptake assay: BODIPY-LDL uptake (RFUs) by HepG2 cells, antibody pre-incubated with 3 µg/mL PCSK9; RFUs rise with the antibody concentration” value with human PCSK9 [2] worked out at 17.3 nM.

B5: Ab7 (antibody, V domains shown)
VH: QEQLKESGGRLVTPGTPLTLTCTVSGFSLSSYAMIWVRQAPGKGLEYIGYIDTDTSAYYASWVKGRFTISRTSTTVDLKITSPTTEDTATYFCARSYAAYGGYPATFDPWGPGTLVTVSS
VL: DVVMTQTPASVSQPVGGTVTIKCQASEDIYNLLAWYQQKPGQPPKLLIYSASTLASGVPSRFKGSGSGTEYTLTISGLECADAATYYCQNNYLVTTYGVAFGGGTEVVVK
Regarding B5, the EC50 in the experiment with human beta-NGF turned out to be 0.182 nM. This lies in the sub-nanomolar range.

The record behind these values is US20140287952A1 (ALDERBIO, published 2014).
